Data taken from patent US11667697 (VANDERBILT UNIVERSITY, dated 2023).

Assays:
VACV D8 protein [1] = target: T1, VACV D8 protein (vaccinia virus, UniProt P04195 1-261); experiment: cell-based or functional assay
T1 sequence: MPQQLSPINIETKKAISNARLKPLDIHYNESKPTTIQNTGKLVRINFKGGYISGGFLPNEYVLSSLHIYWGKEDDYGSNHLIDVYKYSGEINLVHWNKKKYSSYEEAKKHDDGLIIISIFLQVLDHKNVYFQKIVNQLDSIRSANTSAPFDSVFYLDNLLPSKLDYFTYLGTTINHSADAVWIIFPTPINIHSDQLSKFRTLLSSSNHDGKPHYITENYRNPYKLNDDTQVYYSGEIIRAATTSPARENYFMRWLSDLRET

VACV D8 protein [2] = target: T1, VACV D8 protein; experiment: lysate ELISA
VACV A27 protein [3] = target: T2, VACV A27 protein (vaccinia virus, UniProt P11258 1-110); experiment: purified antigen ELISA
T2 sequence: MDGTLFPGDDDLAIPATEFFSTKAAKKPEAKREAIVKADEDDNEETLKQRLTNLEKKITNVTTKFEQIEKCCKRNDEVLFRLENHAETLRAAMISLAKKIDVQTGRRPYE

VACV A27 protein [4] = target: T2, VACV A27 protein; experiment: cell-based or functional assay
VACV A27 protein [5] = target: T2, VACV A27 protein; experiment: lysate ELISA
VACV A33 protein = VACV A33 protein (vaccinia virus, UniProt P68617 58-185); experiment: purified antigen ELISA
VACV B5 protein [6] = target: T3, VACV B5 protein (vaccinia virus, UniProt Q01227 20-275); experiment: purified antigen ELISA
VACV B5 protein [7] = target: T3, VACV B5 protein; experiment: cell-based or functional assay

B1: VACV-136 (antibody, V domains shown)
V domain 1: QVTLKESGPVLVNPTETLTLTCTVSGFSLSNARMRVSWIRQPPGKALEWLAHIFSNDEKSYSTSLKSRLTISKDTSKSQVVLTMTNMDPVDTASYYCARMRGEYNSYYFDSWGQGTLVTVS
V domain 2: SYELTQPPSVSVSPGQTARITCSGDALPNQYAYWYQQKPGQAPVLVIYKDSERPSGIPERFSGSSSGTTVTLTISGVQAEDEADYYCQSADSSGTSVVFGGGTQVTV
notes: human IgG1, anti-D8
For B1, the “PRNT Emax, VACV MV+C'” value (VACV D8 protein [1]) was 84%, the “PRNT IC50, VACV MV+C'” value (VACV D8 protein [1]) was 0.4 µg/mL and the EC50 (VACV D8 protein [2]) was 0.06 µg/mL.

B2: VACV-302 (antibody, V domains shown)
VH: QLQLQESGPGLVKPSETLSLTCTVSGGSIISSSYYWGWIRQPPGKGLEWLGSIYYSGSTYYNPSLKSRVTISVDTSKNQFSLKVTSVTAADTAVYYCARQISKAAAGSIDYWGQGTLVTVS
VL: not shown
notes: human IgG1, anti-A27
In the case of B2, the EC50 (VACV A27 protein [3]) is reported as 0.08 µg/mL, the “PRNT Emax, VACV MV” value (VACV A27 protein [4]) is reported as 81% and the “PRNT Emax, VACV MV+C'” value (VACV A27 protein [4]) is reported as 53%. For the same binder, the “PRNT IC50, VACV MV” value (VACV A27 protein [4]) was 12.3 µg/mL, the “PRNT IC50, VACV MV+C'” value (VACV A27 protein [4]) was 0.1 µg/mL and the EC50 (VACV A27 protein [5]) was 0.01 µg/mL.

B3: MPXV-61 (antibody, V domains shown)
V domain 1: QVQLVQSGAEVKKPGSSVKVSCKASGETFSRYAFSWVRLAPGQGLEWLGRIIPFIDIPNYAQKFQGRVTITADKSTSTAYMELSSLRSEDTAVYYCASSLPSTYYFGSGNYPWGNWLDPWGQGTLVTVSS
V domain 2: QSVVTQPPSVSAAPGQNVTISCSGSSSNIGNNYVSWYHQLPGTAPKLLIYDNDKRPSGIPDRFSGSKSGTSATLGITGLQTGDEADYYCGTWDSSLSEVVFGGGTQVTVL
notes: human IgG1, anti-D8
For B3, the EC50 (VACV D8 protein [2]) was 0.007 µg/mL.

B4: MPXV-96 (antibody, V domains shown)
VH: QVQLQQWGAGLLISSETLSLTCGVYGGSFSGYYWTWIRQPPGKGLEWIGEINYVGSTNYNPSLKSRVTMSVDTSKNHFSLSLSSVTAADTAVYYCARGLRGNSVCFDWGPGTLV
VL: ELVMTQSPATLSVSPGERASLSCRASQSVSSNLAWYQQKPGQAPRLLIYGASTRATGLPARFSGSGSGTEFTLTISSLQSEDFAIYYCQQYNNWPRTFGQGTKVDI
notes: human IgG1, anti-D8
Binder B4 has an EC50 (VACV D8 protein [2]) of 0.001 µg/mL.

B5: VACV-300 (antibody, V domains shown)
V domain 1: QVQLVQSGAEVKKPGSSVKVSCKASGGTFSSYAISWVRQAPGQGLEWMGGIIPIFGTANYAQKFQGRVTITADESTGTAYMELTSLRSEDTAIYYCARASEQWLASINWFDPWGQGTLVTVSS
V domain 2: QSALTQPASVSGSPGQSITISCTGTSSDVGSYNLVSWYQQHPGKAPKLMIYEVSKRPSGVSNRFSASKSGNTASLTISGLQAEDEADYYCCSYAGSSTLVFGGGTQVTVL
notes: human IgG1, anti-A27
For B5, the EC50 (VACV A27 protein [3]) was 0.22 µg/mL and the EC50 (VACV A27 protein [5]) was > 0.37 µg/mL.

B6: MPXV-30 (antibody, V domains shown)
VH: QVQLVQSGAEVKKPGSSVKVSCKVSGGTFSSLAINWVRQAPGQGLEWMGGIIPIFGKANYAQKFQGRVSIIADESTSTAYMDLSSLRFEDTAVYYCATGGNIRVHDFDIWGQGTLVIVSS
VL: not shown
notes: human IgG1, anti-D8
Work on B6 yielded an EC50 (VACV D8 protein [2]) of 0.004 µg/mL.

B7: VACV-230 (antibody, V domains shown)
VH: QVQLVQSGAEVKKPGASVKVSCKVSGYTLTELSMHWVRQAPGKGLEWLGGFDPEDGETIYAQKFQGRVTMTEDTSTDTAYMELSSLRSEDTAVYYCARESWLRGFDYWGQGTLVTVS
VL: not shown
notes: human IgG1, anti-D8
B7 was tested, and the “PRNT Emax, VACV MV+C'” value (VACV D8 protein [1]) was 77%, the “PRNT IC50, VACV MV+C'” value (VACV D8 protein [1]) was 0.1 µg/mL and the EC50 (VACV D8 protein [2]) was 0.6 µg/mL.

B8: VACV-154 (antibody, V domains shown)
VH: EVQLLESGGGLVQPGESLRLSCAASGFTLRNYAMSWVRQTPGKGLEWVSAISGSGGSTYYADSVKGRFTISRDTSKNTLYVQMNSLRAEDTAVYYCAKIRLDSSGYSGAFDIWGQGTRVTVSS
VL: SYELTQPPSVSVSPGQTARITCSGDALPKQYASWYQQKPGQAPVLVIYKDSERPSGIPERFSGSSSGTTVTLTISGVQAEDEADYYCQSADSSGTYPVVFGGGTQLTVL
notes: human IgG1, anti-A27
B8 was tested, and the EC50 (VACV A27 protein [3]) was 0.06 µg/mL and the EC50 (VACV A27 protein [5]) was > 0.1 µg/mL.

B9: MPXV-39 (antibody, V domains shown)
VH: QVQLQQWGAGLLKPSETLSLTCAIYGGSLSGQYWSWIRQPPGRGLEWIGEIHHKGRTNYNPSLKSRVTISIDTSQRQFSLRLTSVSAADTAVYYCASGNYRLGQGTLVTF
VL: DVVLTQSPLTLPVTLGQPASISCRSSQSLVYSDGDTYLNWFQQRPGQAPRRLIYKVSKRDFGVPDRFSGSGSGTDFTLRISRVEAEDVGVYYCMQGTHWPRTFGQGTQVDIK
notes: human IgG3, anti-A33
B9 gave an EC50 (VACV A33 protein) of 0.07 µg/mL.

B10: VACV-282 (antibody, V domains shown)
VH: EVQLVESGGGLVKPGGSLRLSCAASGFTFSSYSMNWVRQAPGKGLEWVSSISSISSYIYYADSVKGRFTISRDNAKNSLYLQMNSLRAEDTAVYYCARDRPRSRPNSGSYFWYYYGMDVW
VL: SYELTQPPSVSVAPGQTARITCGGNNIGSKSVHWYQQKPGQAPVLVVYDDSDRPSGIPERFSGSNSGNTATLTISRVEAGDEADYYCQVWDSNSDHRVSA
notes: human IgG1, anti-B5
For B10, the EC50 (VACV B5 protein [6]) was 0.155 µg/mL.

B11: VACV-59 (antibody, V domains shown)
VH: QVQLVQSGGGLVKPGGSLRLSCAASGFTFSDYYMSWIRQAPGKGLEWVSYISTSGSTIYYADSVKGRFTISRDNAKNSLYLQMNSLRAEDTAMYYCARDGDGSGSYTPPYYYYGLDVWGQGTTVTVSS
VL: DIQMTQSPSSLSASVGDRVTITCRASQSIRNYLNWYQQKSGKAPKLLIYAASSLQSGVPSRFSGSGSGTDFTLTISSLHPEDFATYYCQQSYSTPPLTFGGGTKVEIK
notes: human IgG2, anti-B5
For B11, the EC50 (VACV B5 protein [6]) was 0.14 µg/mL, the “PRNT Emax, VACV EV+C'” value (VACV B5 protein [7]) was 72% and the “PRNT IC50, VACV EV+C'” value (VACV B5 protein [7]) was 0.2 µg/mL.

B12: VACV-56 (antibody, V domains shown)
VH: QVQLQQWGAGLLKPSETLSLTCAVYGGSFSGYYWSWIRQPPGKGLEWIGEINHSGSTNYNPSLKSRVTISVDTSKSQFSLKLSSVTAADTAVYYCARATQGSGTYKLFFYSYGMDVWGQGTTVTVSS
VL: not shown
notes: human IgG1, anti-D8
B12 was tested, and the “PRNT Emax, VACV MV+C'” value (VACV D8 protein [1]) was 81%, the “PRNT IC50, VACV MV+C'” value (VACV D8 protein [1]) was 0.04 µg/mL and the EC50 (VACV D8 protein [2]) was 0.01 µg/mL.

B13: VACV-1 (antibody, V domains shown)
VH: EVQLVESGGGLVQPGESLKISCAASGFTFSSFSMNWVRQAPGKGLEWVSYISSSSSTIYYADSVKGRFTISRDNAKNSLYLQMNSLRDEDTAVYYCARRSVGCSGGNCYAYYYGMDVWGQGTTVTVS
VL: not shown
notes: human IgG1, anti-B5
B13 showed an EC50 (VACV B5 protein [6]) of 0.02 µg/mL.

B14: VACV-303 (antibody, V domains shown)
VH: EVQLLESGGGLVQPGGSLRLSCAASGFTFSSYAMSWVRQAPGKGLEWVSAISGTGGNTYYADSVKGRFTISRDKSKNTLYLQMHSLRAEDTAVYYCATSLIWWLQSDYWGQGTLVTVSS
VL: DIQMTQSPSSLSASVGDRVTITCRASQSIASYLIWYQQKPGNAPKLLIYAASSLQSGVPSRFSGSGSGTDFTLTISSLQPEDFATYYCQQSYSTPQTFGQGTKVDIK
notes: human IgG1, anti-A27
With B14 the EC50 (VACV A27 protein [3]) was 0.02 µg/mL and the EC50 (VACV A27 protein [5]) was 0.05 µg/mL.

B15: VACV-301 (antibody, V domains shown)
VH: EVQLLESGGGLVQPGGSLRLSCAASGFSFSSYAMSWVRQAPGKGLEWVSGIGNSGDRTFYADSAKGRFTIFRDNSNNRLYLQMNSLRAADTAVYYCAKWGRFESGAFWGQGVLVTVSS
VL: SYELTQSPSVSVSPGQTARITCSGDALPEQYAYWYQQKPGQAPVLVIYKDSERPSGIPERFSGSGSGTTVTLTITGVQAEDEADYYCQSADNSGTYEVFGTGTKVTVL
notes: human IgG3, anti-A27
B15 was tested, and the EC50 (VACV A27 protein [3]) was 0.03 µg/mL, the “PRNT Emax, VACV MV” value (VACV A27 protein [4]) was 61% and the “PRNT Emax, VACV MV+C'” value (VACV A27 protein [4]) was 77%. For the same binder, the “PRNT IC50, VACV MV” value (VACV A27 protein [4]) was 0.5 µg/mL, the “PRNT IC50, VACV MV+C'” value (VACV A27 protein [4]) was 0.1 µg/mL and the EC50 (VACV A27 protein [5]) was > 21 µg/mL.

B16: VACV-8 (antibody, V domains shown)
VH: QVQLQQWGAGLLKPSETLSLTCAGYGGSFSGYFWSWIRQPPGKGLEWIGEINHSGSTDYNPSLKSRVTISLDTSKTQFSLKLSSVTAADTAVYYCARVMTGITNYYYYYGMDVWGQGTTVTF
VL: DIQLTQSPSFLSASVGDRVTITCRASQDISSYLAWYQQKPGKAPKLLIYAASTLQSGVPSRFSGSESGTEFTLTISSLQPENFATYYCQHLNSYPRGYTFGQGTKVDIK
notes: human IgG1, anti-D8
With B16 the “PRNT Emax, VACV MV+C'” value (VACV D8 protein [1]) was 74%, the “PRNT IC50, VACV MV+C'” value (VACV D8 protein [1]) was 0.3 µg/mL and the EC50 (VACV D8 protein [2]) was 0.04 µg/mL.
